B1: AGT-Mi (Homo sapiens; G161S/I340M/P11L) (protein)
chain: MASHKLLVTPLKALLKPLSIPNQLLLGPGPSNLPPRIMAAGGLQMIGSMSKDMYQIMDEIKEGIQYVFQTRNPLTLVISGSGHCALEAALVNVLEPGDSFLVGANGIWGQRAVDIGERIGARVHPMTKDPGGHYTLQEVEEGLAQHKPVLLFLTHGESSTSVLQPLDGFGELCHRYKCLLLVDSVASLGGTPLYMDRQGIDILYSGSQKALNAPPGTSLISFSDKAKKKMYSRKTKPFSFYLDIKWLANFWGCDDQPRMYHHTIPVISLYSLRESLALIAEQGLENSWRQHREAAAYLHGRLQALGLQLFVKDPALRLPTVTTVAVPAGYDWRDIVSYVMDHFDIEIMGGLGPSTGKVLRIGLLGCNATRENVDRVTEALRAALQHCPKKKL
B2: AGT-Ma (Homo sapiens; S218L) (protein)
chain: MASHKLLVTPPKALLKPLSIPNQLLLGPGPSNLPPRIMAAGGLQMIGSMSKDMYQIMDEIKEGIQYVFQTRNPLTLVISGSGHCALEAALVNVLEPGDSFLVGANGIWGQRAVDIGERIGARVHPMTKDPGGHYTLQEVEEGLAQHKPVLLFLTHGESSTGVLQPLDGFGELCHRYKCLLLVDSVASLGGTPLYMDRQGIDILYSGSQKALNAPPGTLLISFSDKAKKKMYSRKTKPFSFYLDIKWLANFWGCDDQPRMYHHTIPVISLYSLRESLALIAEQGLENSWRQHREAAAYLHGRLQALGLQLFVKDPALRLPTVTTVAVPAGYDWRDIVSYVIDHFDIEIMGGLGPSTGKVLRIGLLGCNATRENVDRVTEALRAALQHCPKKKL
B3: alanine:glyoxylate aminotransferase variant G350D on the minor allele (enzyme, human, UniProt P21549 1-392, looked up)
chain: MASHKLLVTPLKALLKPLSIPNQLLLGPGPSNLPPRIMAAGGLQMIGSMSKDMYQIMDEIKEGIQYVFQTRNPLTLVISGSGHCALEAALVNVLEPGDSFLVGANGIWGQRAVDIGERIGARVHPMTKDPGGHYTLQEVEEGLAQHKPVLLFLTHGESSTGVLQPLDGFGELCHRYKCLLLVDSVASLGGTPLYMDRQGIDILYSGSQKALNAPPGTSLISFSDKAKKKMYSRKTKPFSFYLDIKWLANFWGCDDQPRMYHHTIPVISLYSLRESLALIAEQGLENSWRQHREAAAYLHGRLQALGLQLFVKDPALRLPTVTTVAVPAGYDWRDIVSYVMDHFDIEIMGDLGPSTGKVLRIGLLGCNATRENVDRVTEALRAALQHCPKKKL
modifications: holo-form: pyridoxal 5'-phosphate in Schiff base linkage with the lysine at position 209; apo-form: without PLP
B4: AGT-Ma (Homo sapiens; P319L) (protein)
chain: MASHKLLVTPPKALLKPLSIPNQLLLGPGPSNLPPRIMAAGGLQMIGSMSKDMYQIMDEIKEGIQYVFQTRNPLTLVISGSGHCALEAALVNVLEPGDSFLVGANGIWGQRAVDIGERIGARVHPMTKDPGGHYTLQEVEEGLAQHKPVLLFLTHGESSTGVLQPLDGFGELCHRYKCLLLVDSVASLGGTPLYMDRQGIDILYSGSQKALNAPPGTSLISFSDKAKKKMYSRKTKPFSFYLDIKWLANFWGCDDQPRMYHHTIPVISLYSLRESLALIAEQGLENSWRQHREAAAYLHGRLQALGLQLFVKDPALRLLTVTTVAVPAGYDWRDIVSYVIDHFDIEIMGGLGPSTGKVLRIGLLGCNATRENVDRVTEALRAALQHCPKKKL
B5: alanine:glyoxylate aminotransferase variant D183N on the major allele (enzyme, human, UniProt P21549 1-392, looked up)
chain: MASHKLLVTPPKALLKPLSIPNQLLLGPGPSNLPPRIMAAGGLQMIGSMSKDMYQIMDEIKEGIQYVFQTRNPLTLVISGSGHCALEAALVNVLEPGDSFLVGANGIWGQRAVDIGERIGARVHPMTKDPGGHYTLQEVEEGLAQHKPVLLFLTHGESSTGVLQPLDGFGELCHRYKCLLLVNSVASLGGTPLYMDRQGIDILYSGSQKALNAPPGTSLISFSDKAKKKMYSRKTKPFSFYLDIKWLANFWGCDDQPRMYHHTIPVISLYSLRESLALIAEQGLENSWRQHREAAAYLHGRLQALGLQLFVKDPALRLPTVTTVAVPAGYDWRDIVSYVIDHFDIEIMGGLGPSTGKVLRIGLLGCNATRENVDRVTEALRAALQHCPKKKL
modifications: holo-form: pyridoxal 5'-phosphate in Schiff base linkage with the lysine at position 209; apo-form: without PLP
B6: alanine:glyoxylate aminotransferase variant G161C on the minor allele (enzyme, human, UniProt P21549 1-392, looked up)
chain: MASHKLLVTPLKALLKPLSIPNQLLLGPGPSNLPPRIMAAGGLQMIGSMSKDMYQIMDEIKEGIQYVFQTRNPLTLVISGSGHCALEAALVNVLEPGDSFLVGANGIWGQRAVDIGERIGARVHPMTKDPGGHYTLQEVEEGLAQHKPVLLFLTHGESSTCVLQPLDGFGELCHRYKCLLLVDSVASLGGTPLYMDRQGIDILYSGSQKALNAPPGTSLISFSDKAKKKMYSRKTKPFSFYLDIKWLANFWGCDDQPRMYHHTIPVISLYSLRESLALIAEQGLENSWRQHREAAAYLHGRLQALGLQLFVKDPALRLPTVTTVAVPAGYDWRDIVSYVMDHFDIEIMGGLGPSTGKVLRIGLLGCNATRENVDRVTEALRAALQHCPKKKL
modifications: holo-form: pyridoxal 5'-phosphate in Schiff base linkage with the lysine at position 209; apo-form: without PLP
B7: alanine:glyoxylate aminotransferase variant G161S on the minor allele (enzyme, human, UniProt P21549 1-392, looked up)
chain: MASHKLLVTPLKALLKPLSIPNQLLLGPGPSNLPPRIMAAGGLQMIGSMSKDMYQIMDEIKEGIQYVFQTRNPLTLVISGSGHCALEAALVNVLEPGDSFLVGANGIWGQRAVDIGERIGARVHPMTKDPGGHYTLQEVEEGLAQHKPVLLFLTHGESSTSVLQPLDGFGELCHRYKCLLLVDSVASLGGTPLYMDRQGIDILYSGSQKALNAPPGTSLISFSDKAKKKMYSRKTKPFSFYLDIKWLANFWGCDDQPRMYHHTIPVISLYSLRESLALIAEQGLENSWRQHREAAAYLHGRLQALGLQLFVKDPALRLPTVTTVAVPAGYDWRDIVSYVMDHFDIEIMGGLGPSTGKVLRIGLLGCNATRENVDRVTEALRAALQHCPKKKL
modifications: holo-form: pyridoxal 5'-phosphate in Schiff base linkage with the lysine at position 209; apo-form: without PLP
B8: alanine:glyoxylate aminotransferase variant S218L on the major allele (enzyme, human, UniProt P21549 1-392, looked up)
chain: MASHKLLVTPPKALLKPLSIPNQLLLGPGPSNLPPRIMAAGGLQMIGSMSKDMYQIMDEIKEGIQYVFQTRNPLTLVISGSGHCALEAALVNVLEPGDSFLVGANGIWGQRAVDIGERIGARVHPMTKDPGGHYTLQEVEEGLAQHKPVLLFLTHGESSTGVLQPLDGFGELCHRYKCLLLVDSVASLGGTPLYMDRQGIDILYSGSQKALNAPPGTLLISFSDKAKKKMYSRKTKPFSFYLDIKWLANFWGCDDQPRMYHHTIPVISLYSLRESLALIAEQGLENSWRQHREAAAYLHGRLQALGLQLFVKDPALRLPTVTTVAVPAGYDWRDIVSYVIDHFDIEIMGGLGPSTGKVLRIGLLGCNATRENVDRVTEALRAALQHCPKKKL
modifications: holo-form: pyridoxal 5'-phosphate in Schiff base linkage with the lysine at position 209; apo-form: without PLP
B9: alanine:glyoxylate aminotransferase variant P319L on the major allele (enzyme, human, UniProt P21549 1-392, looked up)
chain: MASHKLLVTPPKALLKPLSIPNQLLLGPGPSNLPPRIMAAGGLQMIGSMSKDMYQIMDEIKEGIQYVFQTRNPLTLVISGSGHCALEAALVNVLEPGDSFLVGANGIWGQRAVDIGERIGARVHPMTKDPGGHYTLQEVEEGLAQHKPVLLFLTHGESSTGVLQPLDGFGELCHRYKCLLLVDSVASLGGTPLYMDRQGIDILYSGSQKALNAPPGTSLISFSDKAKKKMYSRKTKPFSFYLDIKWLANFWGCDDQPRMYHHTIPVISLYSLRESLALIAEQGLENSWRQHREAAAYLHGRLQALGLQLFVKDPALRLLTVTTVAVPAGYDWRDIVSYVIDHFDIEIMGGLGPSTGKVLRIGLLGCNATRENVDRVTEALRAALQHCPKKKL
modifications: holo-form: pyridoxal 5'-phosphate in Schiff base linkage with the lysine at position 209; apo-form: without PLP
B10: alanine:glyoxylate aminotransferase variant S158L on the major allele (enzyme, human, UniProt P21549 1-392, looked up)
chain: MASHKLLVTPPKALLKPLSIPNQLLLGPGPSNLPPRIMAAGGLQMIGSMSKDMYQIMDEIKEGIQYVFQTRNPLTLVISGSGHCALEAALVNVLEPGDSFLVGANGIWGQRAVDIGERIGARVHPMTKDPGGHYTLQEVEEGLAQHKPVLLFLTHGELSTGVLQPLDGFGELCHRYKCLLLVDSVASLGGTPLYMDRQGIDILYSGSQKALNAPPGTSLISFSDKAKKKMYSRKTKPFSFYLDIKWLANFWGCDDQPRMYHHTIPVISLYSLRESLALIAEQGLENSWRQHREAAAYLHGRLQALGLQLFVKDPALRLPTVTTVAVPAGYDWRDIVSYVIDHFDIEIMGGLGPSTGKVLRIGLLGCNATRENVDRVTEALRAALQHCPKKKL
modifications: holo-form: pyridoxal 5'-phosphate in Schiff base linkage with the lysine at position 209; apo-form: without PLP
B11: alanine:glyoxylate aminotransferase variant S187F on the major allele (enzyme, human, UniProt P21549 1-392, looked up)
chain: MASHKLLVTPPKALLKPLSIPNQLLLGPGPSNLPPRIMAAGGLQMIGSMSKDMYQIMDEIKEGIQYVFQTRNPLTLVISGSGHCALEAALVNVLEPGDSFLVGANGIWGQRAVDIGERIGARVHPMTKDPGGHYTLQEVEEGLAQHKPVLLFLTHGESSTGVLQPLDGFGELCHRYKCLLLVDSVAFLGGTPLYMDRQGIDILYSGSQKALNAPPGTSLISFSDKAKKKMYSRKTKPFSFYLDIKWLANFWGCDDQPRMYHHTIPVISLYSLRESLALIAEQGLENSWRQHREAAAYLHGRLQALGLQLFVKDPALRLPTVTTVAVPAGYDWRDIVSYVIDHFDIEIMGGLGPSTGKVLRIGLLGCNATRENVDRVTEALRAALQHCPKKKL
modifications: holo-form: pyridoxal 5'-phosphate in Schiff base linkage with the lysine at position 209; apo-form: without PLP
B12: alanine:glyoxylate aminotransferase variant W108R on the minor allele (enzyme, human, UniProt P21549 1-392, looked up)
chain: MASHKLLVTPLKALLKPLSIPNQLLLGPGPSNLPPRIMAAGGLQMIGSMSKDMYQIMDEIKEGIQYVFQTRNPLTLVISGSGHCALEAALVNVLEPGDSFLVGANGIRGQRAVDIGERIGARVHPMTKDPGGHYTLQEVEEGLAQHKPVLLFLTHGESSTGVLQPLDGFGELCHRYKCLLLVDSVASLGGTPLYMDRQGIDILYSGSQKALNAPPGTSLISFSDKAKKKMYSRKTKPFSFYLDIKWLANFWGCDDQPRMYHHTIPVISLYSLRESLALIAEQGLENSWRQHREAAAYLHGRLQALGLQLFVKDPALRLPTVTTVAVPAGYDWRDIVSYVMDHFDIEIMGGLGPSTGKVLRIGLLGCNATRENVDRVTEALRAALQHCPKKKL
modifications: holo-form: pyridoxal 5'-phosphate in Schiff base linkage with the lysine at position 209; apo-form: without PLP

What was measured:
[1] = substrate: O=CC(=O)O; experiment: spectrophotometric assay of pyruvate, coupled lactate dehydrogenase; assay type: biochemical, Homo sapiens; details: saturating L-alanine as co-substrate; saturating PLP
[2] = substrate: C[C@H](N)C(=O)O; experiment: as above; assay type: biochemical, Homo sapiens; details: saturating glyoxylate as co-substrate; saturating PLP
dynamic light scattering = molecular target: the molecule itself; experiment: dynamic light scattering

Protein | stoichiometry N (dynamic light scattering) | also measured
B1 |  | Km [1]: 630 ± 70 µM; kcat [1]: 58 ± 2 s⁻¹; kcat/Km [1]: 92000 ± 2000 M⁻¹ s⁻¹
B2 |  | Km [2]: 29000 ± 6000 µM; kcat [2]: 2.7 ± 0.1 s⁻¹; kcat/Km [2]: 90 ± 20 M⁻¹ s⁻¹
B3 | 2 | 
B4 |  | Km [1]: 110 ± 20 µM; kcat [1]: 26.2 ± 0.7 s⁻¹; kcat/Km [1]: 238000 ± 44000 M⁻¹ s⁻¹
B5 | 2 | 
B6 | 2 | 
B7 | 2 | 
B8 | 2 | 
B9 | 2 | 
B10 | 2 | 
B11 | 2 | 
B12 | 2 | 
